According to the supplement of paper PMC9233669:
Variants at the floor of the assay were thinned out.

What was measured:
biotinyl-Val-oxazolone = assay: self-aminoacylation, catalytic enhancement (BVO) (fold over background); higher = more active; k-Seq, kA / k0A0; sequences stand for … in GGGAAUGGAUCCACAUCUACGAAUUC…UUCACUGCAGACUUGACGAAGCUG
Method in brief: (§1)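 The uncatalyzed rate is the low-activity peak of a bimodal Gaussian fit, and catalytic enhancement is median kA divided by it. The kA values came from pseudo-first-order fits, with 1000 bootstraps, of per-sequence fraction reacted measured by streptavidin capture, triplicate qPCR and Illumina sequencing. Mutagenized RNA pools with a 21-nt variable region (0.43 μM) were reacted with each biotinyl-aminoacyl-oxazolone at 2–1250 μM in 50 μL HEPES/NaCl/KCl/MgCl2/CaCl2 buffer with 5% acetonitrile, pH 6.9–7.0, for 90 minutes at room temperature.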

biotinyl-Phe-oxazolone = assay: self-aminoacylation, catalytic enhancement (BFO) (fold over background); higher = more active; k-Seq, kA / k0A0; sequences stand for … in GGGAAUGGAUCCACAUCUACGAAUUC…UUCACUGCAGACUUGACGAAGCUG
Method in brief: as §1

biotinyl-Ile-oxazolone = assay: self-aminoacylation, catalytic enhancement (BIO) (fold over background); higher = more active; k-Seq, kA / k0A0; sequences stand for … in GGGAAUGGAUCCACAUCUACGAAUUC…UUCACUGCAGACUUGACGAAGCUG
Method in brief: as §1

biotinyl-Leu-oxazolone = assay: self-aminoacylation, catalytic enhancement (BLO) (fold over background); higher = more active; k-Seq, kA / k0A0; sequences stand for … in GGGAAUGGAUCCACAUCUACGAAUUC…UUCACUGCAGACUUGACGAAGCUG
Method in brief: as §1

biotinyl-Trp-oxazolone = assay: self-aminoacylation, catalytic enhancement (BWO) (fold over background); higher = more active; k-Seq, kA / k0A0; sequences stand for … in GGGAAUGGAUCCACAUCUACGAAUUC…UUCACUGCAGACUUGACGAAGCUG
Method in brief: as §1

biotinyl-Met-oxazolone = assay: self-aminoacylation, catalytic enhancement (BMO) (fold over background); higher = more active; k-Seq, kA / k0A0; sequences stand for … in GGGAAUGGAUCCACAUCUACGAAUUC…UUCACUGCAGACUUGACGAAGCUG
Method in brief: as §1

Sequence	self-aminoacylation (biotinyl-Val-oxazolone)	self-aminoacylation (biotinyl-Phe-oxazolone)	self-aminoacylation (biotinyl-Ile-oxazolone)	self-aminoacylation (biotinyl-Leu-oxazolone)	self-aminoacylation (biotinyl-Trp-oxazolone)	self-aminoacylation (biotinyl-Met-oxazolone)
AUUCACCUCGGGCAUCGGGUG [Fam2.2 aminoacylation ribozyme variant]	5.1	34.5	3.71	6.03	5.56	5.94
AUUCACCUCGGUCAUCGGAUG [Fam2.2 aminoacylation ribozyme variant]	1	0.352	0.927	0.794	0.751	0.789
AUUCACCUCGGUCAUCGGGAG [Fam2.2 aminoacylation ribozyme variant]	1.22	0.478	1.02	1.63	1.17	1.39
AUUCACCUCGGUCAUCGGGUU [Fam2.2 aminoacylation ribozyme variant]	2.41	13.3	2.15	2.47	2.53	2.44
AUUCACCUCGGUCAUCGGUUG [Fam2.2 aminoacylation ribozyme variant]	1.07	5.88	0.923	1.25	0.911	1.07
AUUCACCUCGGUCUUCGGGUG [Fam2.2 aminoacylation ribozyme variant]	4.01	33	3.77	6.72	4.87	3.71
AUUCACCUGGAUCAUCGGGUG [Fam2.2 aminoacylation ribozyme variant]	3.08	15.1	2.55	3.12	3.31	2.39
AUUCACCUGGGUAAUCGGGUG [Fam2.2 aminoacylation ribozyme variant]	2.88	30.1	3.15	5.16	4.84	4.71
AUUCACCUGGGUCAUCCGGUG [Fam2.2 aminoacylation ribozyme variant]	7.4	75.6	7.06	13.3	9.13	11.2
AUUCACCUGGGUCAUCGGGAG [Fam2.2 aminoacylation ribozyme variant]	1.62	7.65	1.65	1.51	2.29	1.86
AUUCACCUUGAUCAUCGGGUG [Fam2.2 aminoacylation ribozyme variant]	2.6	19	2.22	3.83	4.07	3.26
AUUCACCUUGGACAUCGGGUG [Fam2.2 aminoacylation ribozyme variant]	3.24	17.1	2.51	3.37	2.97	3.51
AUUCACCUUGGCCAUCGGGUG [Fam2.2 aminoacylation ribozyme variant]	3.88	31.6	2.9	4.98	4.95	4.02
AUUCACCUUGGUCAUCGAGUG [Fam2.2 aminoacylation ribozyme variant]	2.49	8.55	2.69	4.66	3.59	3.96
AUUCACGUAGCUCAUCGGGUG [Fam2.2 aminoacylation ribozyme variant]	3.52	17.7	2.24	2.42	2.88	3.44
AUUCACGUAGGUCAUAGGGUG [Fam2.2 aminoacylation ribozyme variant]	1.92	2.23	1.67	2.36	1.97	2.17
AUUCACGUAGGUCAUCGCGUG [Fam2.2 aminoacylation ribozyme variant]	9.95	119	7.52	15.8	11.1	16
AUUCACGUAGGUCAUCGGGUA [Fam2.2 aminoacylation ribozyme variant]	3.72	21	2.9	2.95	3.66	3.16
AUUCACGUAGGUCAUCGGGUU [Fam2.2 aminoacylation ribozyme variant]	2.74	14.9	2.03	2.54	2.93	2.4
AUUCACGUAGGUCAUCUGGUG [Fam2.2 aminoacylation ribozyme variant]	3.61	31.2	3.05	5.52	4.82	5.3
AUUCACUAAGGUCAUCGGGUG [Fam2.2 aminoacylation ribozyme variant]	3.66	37.7	3.57	6.72	5.99	5.33
AUUCACUGAGGUCAUCGGGUG [Fam2.2 aminoacylation ribozyme variant]	4.37	55.7	4.51	9.09	5.64	7.22

Sequence	self-aminoacylation (biotinyl-Val-oxazolone)	self-aminoacylation (biotinyl-Phe-oxazolone)	self-aminoacylation (biotinyl-Ile-oxazolone)	self-aminoacylation (biotinyl-Leu-oxazolone)	self-aminoacylation (biotinyl-Trp-oxazolone)	self-aminoacylation (biotinyl-Met-oxazolone)
AUUCACUUAGGUCAACGGGUG [Fam2.2 aminoacylation ribozyme variant]	2.26	21.2	2.52	4.92	3.53	3.84
AUUCACUUAGGUCAUCUGGUG [Fam2.2 aminoacylation ribozyme variant]	2.1	12.6	2.06	3.65	3.19	3.11
AUUCACUUAGGUCAUGGGGUG [Fam2.2 aminoacylation ribozyme variant]	3.31	46.2	3.61	7.09	5.74	5.58
AUUCACUUAGGUCAUUGGGUG [Fam2.2 aminoacylation ribozyme variant]	2.39	25.2	2.3	4.48	3.76	3.64
AUUCAGAUAGGUCAUCGGGUG [Fam2.2 aminoacylation ribozyme variant]	3.77	49.6	4.19	7.3	5.8	6.75
AUUCAGCAAGGUCAUCGGGUG [Fam2.2 aminoacylation ribozyme variant]	4.9	47.9	4.51	7.63	7	6.23
AUUCAGCUAGGUAAUCGGGUG [Fam2.2 aminoacylation ribozyme variant]	2.65	23.8	2.69	4.57	4.43	4.03
AUUCAGCUAGGUCAUAGGGUG [Fam2.2 aminoacylation ribozyme variant]	1.23	1.15	0.975	1.24	1.17	1.09
AUUCAGCUAGGUCAUUGGGUG [Fam2.2 aminoacylation ribozyme variant]	2.55	15	2.04	2.38	3.25	2.62
AUUCAGCUAGGUCGUCGGGUG [Fam2.2 aminoacylation ribozyme variant]	2.62	13.1	2.53	3.24	3.08	3.24
AUUCAGCUAGGUGAUCGGGUG [Fam2.2 aminoacylation ribozyme variant]	4.04	25.3	3.84	5.32	4.6	4.52
AUUCAGCUAUGUCAUCGGGUG [Fam2.2 aminoacylation ribozyme variant]	2.63	16.6	2.19	3.03	3.19	3.17
AUUCAGUUAGGUCAUCGGGUG [Fam2.2 aminoacylation ribozyme variant]	3.12	25.6	3.04	4.86	4.04	3.8
AUUCAUCUAAGUCAUCGGGUG [Fam2.2 aminoacylation ribozyme variant]	5.64	86.6	6.41	15	10.9	10.9
AUUCAUCUACGUCAUCGGGUG [Fam2.2 aminoacylation ribozyme variant]	3.82	53	3.69	8.74	7.17	6.12
AUUCAUCUAGGUCACCGGGUG [Fam2.2 aminoacylation ribozyme variant]	3.34	36.8	3.85	6.82	5.32	5.35
AUUCAUCUAGGUCAUCGGGUC [Fam2.2 aminoacylation ribozyme variant]	1.28	2.17	1.07	1.22	1.02	1.21
AUUCAUCUAGGUCAUCGGGUG [Fam2.2 aminoacylation ribozyme variant]	4.7	39.2	4.88	9.76	7.12	7.46
AUUCAUCUAGGUCGUCGGGUG [Fam2.2 aminoacylation ribozyme variant]	1.86	4.73	1.93	2.27	1.68	2.1
AUUCCCAUGGUCAUCGAGUGA [Fam2.1 aminoacylation ribozyme variant]	5.75	51.4	5.75	11.3	12.9	10.4
AUUCCCCCAGGUCAUCGGGUG [Fam2.2 aminoacylation ribozyme variant]	11.4	174	14	24.7	17.1	17.1
